Assay type in all cases: cell-based
Assay [1] deals with T1, U-p38α (Homo sapiens, UniProt P63279+Q16539).
T1 construct: expressed in transfected cells; host or cells: HEK293
The assay can be described thus: Trans-SUMOylation by U-p38α. The following applies: protein 2 construct coexpressed with U-p38α and EGFP-SUMO1 in HEK293; western blot; Table 1.

Assay [2] concerns the target T2, ERK2-U (Homo sapiens, UniProt P28482+P63279).
T2 construct: expressed in transfected cells; host or cells: HEK293
In words: Trans-SUMOylation by ERK2-U. The settings on record: protein 2 construct coexpressed with ERK2-U and EGFP-SUMO1 in HEK293; western blot; Table 2. Background: A western blot detects proteins with antibodies after separation by electrophoresis.

For assay [3], the target named is T3, JUN-U (Homo sapiens, UniProt P05412+P63279).
T3 construct: expressed in transfected cells; host or cells: HEK293
The assay can be described thus: Trans-SUMOylation by JUN-U. The following applies: protein 2 construct coexpressed with JUN-U and EGFP-SUMO1 in HEK293; western blot; Table 2.

The target in assay [4] is T4, U-MK2 (Homo sapiens, UniProt P49137+P63279).
T4 construct: expressed in transfected cells; host or cells: HEK293
In words: Trans-SUMOylation by U-MK2. The settings on record: protein 2 construct coexpressed with U-MK2 and EGFP-SUMO1 in HEK293; western blot; Table 2.

In assay [5] the target is T5, U-MK5 (Homo sapiens, UniProt P63279+Q8IW41).
T5 construct: expressed in transfected cells; host or cells: HEK293
In words: Trans-SUMOylation by U-MK5. Set-up: key: (++), strong TransSUMOylation; (+), TransSUMOylation; (+/−) weak TransSUMOylation; (−) no detectable TransSUMOylation. The following applies: protein 2 construct coexpressed with U-MK5 and EGFP-SUMO1 in HEK293; western blot; Table 2. An excerpt:
(§1) To identify new SUMOylation substrates and to study the function of SUMOylation the Ubc9/substrate dimerisation-dependent SUMOylation system (USDDS) was developed which consists of fusions of the SUMOylation substrate and of the SUMO-conjugating enzyme Ubc9 to the chemically activatable heterodimerisation domains FKBP and FRB, respectively, as shown in FIG. 2. When the substrate protein fused to FKBP is coexpressed with Ubc9-FRB, treatment of HEK293 cells with the rapamycin-related dimerizer AP21967 induces SUMOylation of the substrate protein fused to FKBP at its specific SUMOylation site. […] Dependent on an EcoRl site in the coding sequence, seven C-terminal amino acids of the human STAT1a in the STAT1-FKBP/FRB fusion proteins are missing. For the SUMOylation analysis HEK293 (human embryonic kidney cells) cells have been used. HEK293 cells were cultured in Dulbecco's modified Eagle's medium with high glucose, complemented with 10% fetal calf serum, 2 mM L-glutamine, 100 U/ml penicillin and […] streptomycin. […]
(§2) As shown above, the SUMOylation of a protein of interest can be induced by the heterodimerisation with a binding protein fused to Ubc9. […] Therefore the protein pairs were coexpressed with EGFP-SUMO1 in HEK293 cells and after 24h the transfectants were lysed and the protein extracts were analyzed in western blots. […]

Assay [6] concerns the target T6, U-CSNK2B (Homo sapiens, UniProt P63279+P67870).
T6 construct: expressed in transfected cells; host or cells: HEK293
In words: Trans-SUMOylation by U-CSNK2B. Set-up: key: (++), strong TransSUMOylation; (+), TransSUMOylation; (+/−) weak TransSUMOylation; (−) no detectable TransSUMOylation. The following applies: protein 2 construct coexpressed with U-CSNK2B and EGFP-SUMO1 in HEK293; western blot; Table 2.
Description: as §1, §2

For assay [7], the target named is T7, U-ERK2 (Homo sapiens, UniProt P28482+P63279).
T7 construct: expressed in transfected cells; host or cells: HEK293
The assay can be described thus: Trans-SUMOylation by U-ERK2. The settings on record: protein 2 construct coexpressed with U-ERK2 and EGFP-SUMO1 in HEK293; western blot; Table 2.

Assay [8] concerns the target T8, MK2-U (Homo sapiens, UniProt P49137+P63279).
T8 construct: expressed in transfected cells; host or cells: HEK293
The assay can be described thus: Trans-SUMOylation by MK2-U. The settings on record: protein 2 construct coexpressed with MK2-U and EGFP-SUMO1 in HEK293; western blot; Table 2.

The target of assay [9] is T9, U-HDGF (Homo sapiens, UniProt P51858+P63279).
T9 construct: Ubc9 (fusion partner); expressed in transfected cells; host or cells: HEK293
In words: Trans-SUMOylation by U-HDGF. The following applies: protein 2 construct coexpressed with U-HDGF and EGFP-SUMO1 in HEK293; western blot; Table 2. Set-up: key: (++), strong TransSUMOylation; (+), TransSUMOylation; (+/−) weak TransSUMOylation; (−) no detectable TransSUMOylation.
Description: as §1, §2

Assay [10] addresses T10, U-HSF2BP (Homo sapiens, UniProt O75031+P63279).
T10 construct: expressed in transfected cells; host or cells: HEK293
In words: Trans-SUMOylation by U-HSF2BP. Further details: key: (++), strong TransSUMOylation; (+), TransSUMOylation; (+/−) weak TransSUMOylation; (−) no detectable TransSUMOylation. The settings on record: protein 2 construct coexpressed with U-HSF2BP and EGFP-SUMO1 in HEK293; western blot; Table 2.
Description: as §1, §2

This is an account of results in patent publication US8551717B2, “Method for determining sumoylation” (Medizinische Hochschule Hannover, priority 2008, dated 2013).

T2 sequence (P28482+P63279 fused): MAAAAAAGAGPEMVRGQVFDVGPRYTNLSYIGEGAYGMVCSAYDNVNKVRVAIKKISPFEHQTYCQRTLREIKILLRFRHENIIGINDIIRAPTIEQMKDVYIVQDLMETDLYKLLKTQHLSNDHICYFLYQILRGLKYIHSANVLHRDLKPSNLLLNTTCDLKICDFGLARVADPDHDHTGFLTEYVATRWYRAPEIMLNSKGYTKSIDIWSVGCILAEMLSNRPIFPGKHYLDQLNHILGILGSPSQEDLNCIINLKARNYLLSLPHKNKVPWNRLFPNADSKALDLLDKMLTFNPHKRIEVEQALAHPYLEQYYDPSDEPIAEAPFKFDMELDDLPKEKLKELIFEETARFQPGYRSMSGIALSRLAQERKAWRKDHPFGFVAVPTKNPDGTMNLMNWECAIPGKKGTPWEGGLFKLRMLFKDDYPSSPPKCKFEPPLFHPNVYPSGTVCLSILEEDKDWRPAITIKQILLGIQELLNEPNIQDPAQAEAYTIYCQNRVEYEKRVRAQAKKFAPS
T3 sequence (P05412+P63279 fused): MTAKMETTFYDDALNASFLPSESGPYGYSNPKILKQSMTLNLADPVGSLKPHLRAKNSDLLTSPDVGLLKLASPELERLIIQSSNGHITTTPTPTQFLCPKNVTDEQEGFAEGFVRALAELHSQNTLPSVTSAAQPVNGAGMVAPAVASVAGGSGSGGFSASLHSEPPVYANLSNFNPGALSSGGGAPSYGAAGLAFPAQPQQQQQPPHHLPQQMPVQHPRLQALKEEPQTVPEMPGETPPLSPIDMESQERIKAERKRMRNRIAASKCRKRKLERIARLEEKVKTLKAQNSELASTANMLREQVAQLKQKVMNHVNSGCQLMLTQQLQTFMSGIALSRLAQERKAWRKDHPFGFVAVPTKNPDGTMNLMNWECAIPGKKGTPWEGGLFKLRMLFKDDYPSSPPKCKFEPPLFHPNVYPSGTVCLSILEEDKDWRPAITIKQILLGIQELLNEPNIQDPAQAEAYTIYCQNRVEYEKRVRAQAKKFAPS
T6 sequence (P63279+P67870 fused): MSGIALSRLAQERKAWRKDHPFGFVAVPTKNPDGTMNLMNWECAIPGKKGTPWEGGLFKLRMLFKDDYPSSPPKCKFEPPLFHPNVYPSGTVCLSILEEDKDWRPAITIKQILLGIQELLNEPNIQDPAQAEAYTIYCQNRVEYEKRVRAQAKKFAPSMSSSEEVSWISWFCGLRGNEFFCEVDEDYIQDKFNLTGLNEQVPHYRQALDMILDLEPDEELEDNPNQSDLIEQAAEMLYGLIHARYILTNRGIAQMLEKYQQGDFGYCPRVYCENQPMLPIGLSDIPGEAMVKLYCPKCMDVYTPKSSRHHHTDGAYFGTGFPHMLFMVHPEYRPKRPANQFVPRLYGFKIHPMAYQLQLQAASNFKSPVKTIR
T8 sequence (P49137+P63279 fused): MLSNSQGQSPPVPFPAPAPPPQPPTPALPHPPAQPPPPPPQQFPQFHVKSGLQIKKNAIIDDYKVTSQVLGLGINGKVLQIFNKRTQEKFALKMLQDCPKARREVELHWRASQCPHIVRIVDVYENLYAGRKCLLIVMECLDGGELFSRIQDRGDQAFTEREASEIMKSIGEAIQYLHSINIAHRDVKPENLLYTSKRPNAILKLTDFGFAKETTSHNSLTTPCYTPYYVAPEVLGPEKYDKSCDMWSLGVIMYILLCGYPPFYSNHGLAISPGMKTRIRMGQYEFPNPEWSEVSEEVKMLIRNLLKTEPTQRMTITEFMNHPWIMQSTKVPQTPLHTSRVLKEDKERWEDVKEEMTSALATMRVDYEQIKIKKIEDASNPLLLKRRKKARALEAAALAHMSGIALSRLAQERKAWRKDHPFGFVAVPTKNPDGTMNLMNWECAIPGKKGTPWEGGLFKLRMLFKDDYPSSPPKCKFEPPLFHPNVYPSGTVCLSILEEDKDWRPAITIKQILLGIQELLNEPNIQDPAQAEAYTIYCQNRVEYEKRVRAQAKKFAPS
T4 sequence (P63279+P49137 fused): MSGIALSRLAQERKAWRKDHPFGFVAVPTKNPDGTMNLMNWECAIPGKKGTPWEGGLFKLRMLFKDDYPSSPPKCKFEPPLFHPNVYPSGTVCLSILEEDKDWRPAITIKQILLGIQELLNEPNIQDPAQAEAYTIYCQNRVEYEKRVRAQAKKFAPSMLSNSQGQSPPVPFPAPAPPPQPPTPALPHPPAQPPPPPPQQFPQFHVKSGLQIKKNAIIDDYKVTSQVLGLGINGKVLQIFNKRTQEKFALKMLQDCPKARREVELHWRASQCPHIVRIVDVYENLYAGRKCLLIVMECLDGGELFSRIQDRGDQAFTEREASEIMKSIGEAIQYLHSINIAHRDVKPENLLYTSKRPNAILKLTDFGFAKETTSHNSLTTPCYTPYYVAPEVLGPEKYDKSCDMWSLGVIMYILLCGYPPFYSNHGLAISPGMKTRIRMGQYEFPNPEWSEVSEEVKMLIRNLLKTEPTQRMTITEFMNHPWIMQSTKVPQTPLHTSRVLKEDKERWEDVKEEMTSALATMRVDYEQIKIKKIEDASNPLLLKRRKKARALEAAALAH
T7 sequence (P63279+P28482 fused): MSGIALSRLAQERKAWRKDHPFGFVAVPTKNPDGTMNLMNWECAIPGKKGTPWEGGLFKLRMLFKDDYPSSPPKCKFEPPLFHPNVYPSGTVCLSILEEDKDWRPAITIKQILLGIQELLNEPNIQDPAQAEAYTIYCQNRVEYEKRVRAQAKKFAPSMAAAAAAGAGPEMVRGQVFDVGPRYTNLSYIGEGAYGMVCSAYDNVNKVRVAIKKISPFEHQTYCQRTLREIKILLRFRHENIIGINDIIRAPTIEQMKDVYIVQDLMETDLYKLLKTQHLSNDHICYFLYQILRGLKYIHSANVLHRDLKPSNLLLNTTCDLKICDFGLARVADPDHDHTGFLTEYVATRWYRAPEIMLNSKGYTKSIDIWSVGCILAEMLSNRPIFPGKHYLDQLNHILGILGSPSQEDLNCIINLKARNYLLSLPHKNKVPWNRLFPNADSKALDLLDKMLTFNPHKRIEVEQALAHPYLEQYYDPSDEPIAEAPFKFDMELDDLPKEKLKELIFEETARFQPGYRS
T1 sequence (P63279+Q16539 fused): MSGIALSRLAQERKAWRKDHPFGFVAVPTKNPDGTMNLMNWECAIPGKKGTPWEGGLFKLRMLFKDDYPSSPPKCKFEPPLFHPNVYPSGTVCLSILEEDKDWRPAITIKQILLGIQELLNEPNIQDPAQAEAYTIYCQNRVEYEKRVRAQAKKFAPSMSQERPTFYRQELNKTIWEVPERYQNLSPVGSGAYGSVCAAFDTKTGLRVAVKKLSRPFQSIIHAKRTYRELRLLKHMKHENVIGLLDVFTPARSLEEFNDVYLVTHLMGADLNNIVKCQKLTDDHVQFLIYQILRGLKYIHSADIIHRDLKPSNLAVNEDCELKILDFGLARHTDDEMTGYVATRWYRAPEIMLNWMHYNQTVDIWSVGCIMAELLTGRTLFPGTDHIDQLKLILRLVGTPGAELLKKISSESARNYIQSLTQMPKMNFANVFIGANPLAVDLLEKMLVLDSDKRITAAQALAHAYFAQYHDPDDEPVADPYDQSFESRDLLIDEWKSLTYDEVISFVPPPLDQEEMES
T9 sequence (P63279+P51858 fused): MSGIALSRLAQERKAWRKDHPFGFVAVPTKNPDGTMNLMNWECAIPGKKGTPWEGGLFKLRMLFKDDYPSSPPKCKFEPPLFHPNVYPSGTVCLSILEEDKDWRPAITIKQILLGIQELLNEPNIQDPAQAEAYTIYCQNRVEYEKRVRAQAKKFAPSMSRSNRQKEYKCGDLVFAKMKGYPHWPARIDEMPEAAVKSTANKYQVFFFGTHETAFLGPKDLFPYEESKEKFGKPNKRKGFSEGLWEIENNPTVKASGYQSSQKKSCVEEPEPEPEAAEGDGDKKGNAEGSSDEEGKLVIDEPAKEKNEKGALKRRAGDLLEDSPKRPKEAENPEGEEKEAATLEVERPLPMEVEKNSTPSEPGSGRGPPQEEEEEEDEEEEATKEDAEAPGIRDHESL
T10 sequence (P63279+O75031 fused): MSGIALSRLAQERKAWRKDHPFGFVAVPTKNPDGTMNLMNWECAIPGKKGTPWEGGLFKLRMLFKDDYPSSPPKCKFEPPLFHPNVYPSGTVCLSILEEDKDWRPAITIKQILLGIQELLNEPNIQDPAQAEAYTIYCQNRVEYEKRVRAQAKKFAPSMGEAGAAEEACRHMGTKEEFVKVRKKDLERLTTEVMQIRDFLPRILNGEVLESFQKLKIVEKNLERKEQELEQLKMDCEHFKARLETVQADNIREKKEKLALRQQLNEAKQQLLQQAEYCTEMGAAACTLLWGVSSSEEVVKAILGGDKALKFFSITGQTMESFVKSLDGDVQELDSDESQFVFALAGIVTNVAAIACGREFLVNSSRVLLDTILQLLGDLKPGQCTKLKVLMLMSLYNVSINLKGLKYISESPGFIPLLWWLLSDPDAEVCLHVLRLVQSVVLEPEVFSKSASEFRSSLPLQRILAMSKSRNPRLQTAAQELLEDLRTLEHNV

B1: HA-MK5: MK5 fused to HA tag (protein)
chain: MSEESDMDKAIKETSILEEYSINWTQKLGAGISGPVRVCVKKSTQERFALKILLDRPKARNEVRLHMMCATHPNIVQIIEVFANSVQFPHESSPRARLLIVMEMMEGGELFHRISQHRHFTEKQASQVTKQIALALRHCHLLNIAHRDLKPENLLFKDNSLDAPVKLCDFGFAKIDQGDLMTPQFTPYYVAPQVLEAQRRHQKEKSGIIPTSPTPYTYNKSCDLWSLGVIIYVMLCGYPPFYSKHHSRTIPKDMRRKIMTGSFEFPEEEWSQISEMAKDVVRKLLKVKPEERLTIEGVLDHPWLNSTEALDNVLPSAQLMMDKAVVAGIQQAHAEQLANMRIQDLKVSLKPLHSVNNPILRKRKLLGTKPKDSVYIHDHENGAEDSNVALEKLRDVIAQCILPQAGKGENEDEKLNEVMQEAWKYNRECKLLRDTLQSFSWNGRGFTDKVDRLKLAEIVKQVIEEQTTSHESQ
modifications: left off: small tags and cut ends
notes: MK5 fused to HA tag
B1: the Trans-SUMOylation entry is recorded as “+” in assay [1]; “(+/−)” in [2]; “−” in [3]; “−” in assay [4]; “(+/−)” in [5]; “−” in [6]. Moreover, the Trans-SUMOylation result in assay [7] and in assay [8] was “−” each time.

B2: GST-HSF2BP: HSF2BP fused to GST tag (protein, UniProt O75031 1-334, looked up)
Heat shock factor 2-binding …: MGEAGAAEEACRHMGTKEEFVKVRKKDLERLTTEVMQIRDFLPRILNGEVLESFQKLKIVEKNLERKEQELEQLKMDCEHFKARLETVQADNIREKKEKLALRQQLNEAKQQLLQQAEYCTEMGAAACTLLWGVSSSEEVVKAILGGDKALKFFSITGQTMESFVKSLDGDVQELDSDESQFVFALAGIVTNVAAIACGREFLVNSSRVLLDTILQLLGDLKPGQCTKLKVLMLMSLYNVSINLKGLKYISESPGFIPLLWWLLSDPDAEVCLHVLRLVQSVVLEPEVFSKSASEFRSSLPLQRILAMSKSRNPRLQTAAQELLEDLRTLEHNV
modifications: GST tag
As to B2, the Trans-SUMOylation result in assay [9] is “−”; in [10], “+”.
